We go through 11 molecules from patent US20240132615A1 (ICHNOS SCIENCES, published 2024).

The target in experiment [1] is T1, recombinant cynomolgus monkey BCMA protein (Acrobiosystems BCA-C52H7) (cynomolgus monkey, UniProt A0A2K5UD97 1-53). Briefly: SPR, Fab as analyte, immobilised cynomolgus BCMA.
Experimental: (§1) Surface plasmon resonance (SPR) was used to measure the binding affinities of the Fab fragments for human and cynomolgus monkey BCMA. Affinities were measured on a Biacore T200 instrument (Cytiva Life Sciences) at 25° C. and analyzed with the Biacore T200 Evaluation Software (v3.1). Measurements were performed on Series S CM5 Sensor Chips (Cytiva Life Sciences, catalog NO: BR100530). Recombinant human BCMA protein (Acrobiosystems, catalog NO: BCA-H522y) and recombinant cynomolgus monkey BCMA protein (Acrobiosystems, catalog NO: BCA-C52H7) were covalently immobilized to around 200 RU on flow-path 2 and flow-path 3 respectively of the Sensor Chip surface using a commercially available amine coupling kit (Cytiva Life Sciences, catalog NO: BR100050). […] Dissociation was monitored for 5 min. After each cycle, the Series S CM5 Sensor Chip surface coated with recombinant BCMA proteins was regenerated with 30 μl of 10 mM Glycine pH 1.5 (Cytiva Life Sciences, catalog NO: BR100354). Experimental data were processed using the 1:1 Langmuir kinetic fitting model. Measurements included zero-concentration samples for referencing. Chi², U- and residual values were used to evaluate the quality of a fit between the experimental data and individual binding models.
Experiment [2] deals with T2, recombinant human BCMA protein (Acrobiosystems BCA-H522y) (human, UniProt Q02223 1-54).
T2 construct: bought protein
T2 sequence (looked up): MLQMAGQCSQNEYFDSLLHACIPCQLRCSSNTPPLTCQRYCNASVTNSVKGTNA
Briefly: SPR, Fab as analyte, immobilised human BCMA, 1:1 Langmuir. Background: SPR reads the build-up and loss of mass on a sensor chip optically.
Experimental: as §1

Experiment [3] deals with T1, recombinant cynomolgus monkey BCMA …. Briefly: SPR, Fab as analyte, immobilised cynomolgus BCMA, 1:1 Langmuir.
Experimental: as §1

T1 sequence (A0A2K5UD97 entry or part of it): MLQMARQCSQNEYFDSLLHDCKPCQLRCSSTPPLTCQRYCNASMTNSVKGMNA

B1: anti-BCMA-UCP01-C2 FAB (Fab, V domains shown)
VH: EVQLLESGGGLVQPGGSLRLSCAASGFIFSQYDMSWVRQAPGKGLEWVSAISLLGDFTSYADSVKGRFTISRDNSKNTLYLQMNSLRAEDTAVYYCARRLTDYISGGGDGFDVWGQGTLVTVSS
VL: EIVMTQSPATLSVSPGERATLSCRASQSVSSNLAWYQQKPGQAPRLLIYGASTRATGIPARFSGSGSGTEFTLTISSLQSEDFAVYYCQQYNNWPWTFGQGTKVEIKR
notes: Fab
As usually defined, the Kd is the concentration at which binding is half-saturated. B1: the binding result in experiment [1] is “no binding”. The Kd in experiment [2] turned out to be 336 nM.

B2: anti-BCMA-PP02-C2 FAB (Fab, V domains shown)
VH: QVQLVQSGAEVKKPGSSVKVSCKASGGHFSSYAISWVRQAPGQGLEWMGGIIPQHGVPSYAQKFQGRVTITADESTSTAYMELSSLRSEDTAVYYCARVLITVDGSYGGFDYWGQGTLVTVSS
VL: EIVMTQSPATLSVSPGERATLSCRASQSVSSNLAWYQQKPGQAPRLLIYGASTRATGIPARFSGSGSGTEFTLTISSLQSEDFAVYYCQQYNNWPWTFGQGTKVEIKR
notes: Fab
As to B2, the binding result in experiment [1] is given as “no binding”. The Kd in experiment [2] is 915 nM.

B3: anti-BCMA-PP02-F1 FAB (Fab, V domains shown)
VH: EVQLLESGGGLVQPGGSLRLSCAASGFSFSEYAMSWVRQAPGKGLEWVSALSLSGDVTSYADSVKGRFTISRDNSKNTLYLQMNSLRAEDTAVYYCARSPYSRVGDSYYYDYIGFDIWGQGTLVTVSS
VL: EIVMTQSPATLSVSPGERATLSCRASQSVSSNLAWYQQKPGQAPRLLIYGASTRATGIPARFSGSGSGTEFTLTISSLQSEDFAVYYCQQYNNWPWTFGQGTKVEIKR
notes: Fab
As for B3, the Kd in experiment [2] is 145 nM; in experiment [3] it was 598 nM.

B4: anti-BCMA-PP02-E6 FAB (Fab, V domains shown)
VH: EVQLLESGGGLVQPGGSLRLSCAASGFTFSYYAMTWVRQAPGKGLEWVSTISQNGGQTKYADSVKGRFTISRDNSKNTLYLQMNSLRAEDTAVYYCARSPYSYLHGYYGFDYWGQGTLVTVSS
VL: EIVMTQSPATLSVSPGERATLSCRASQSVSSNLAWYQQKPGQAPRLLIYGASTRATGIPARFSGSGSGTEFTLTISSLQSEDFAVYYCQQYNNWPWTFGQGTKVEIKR
notes: Fab; also called anti-BCMA-E6; anti-BCMA-E6 Fab
Consider B4, for which the dissociation constant Kd came to 18 nM in experiment [2] and 52 nM in experiment [3].

B5: anti-BCMA-UCP01-F9 FAB (Fab, V domains shown)
VH: QVQLVQSGAEVKKPGSSVKVSCKASGYKFRTYAINWVRQAPGQGLEWMGGIVPISGETFYAQKFQGRVTITADESTSTAYMELSSLRSEDTAVYYCAREDYSDYWGQGTLVTVSS
VL: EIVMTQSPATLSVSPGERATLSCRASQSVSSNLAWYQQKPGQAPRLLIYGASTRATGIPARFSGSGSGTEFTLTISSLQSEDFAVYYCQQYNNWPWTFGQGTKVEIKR
notes: Fab
For B5, the binding result in experiment [1] is reported as “no binding”. In experiment [2], the dissociation constant (Kd) turned out to be 617 nM.

B6: anti-BCMA-PP03-E4 FAB (Fab, V domains shown)
VH: EVQLLESGGGLVQPGGSLRLSCAASGFALSYYAMSWVRQAPGKGLEWVSAISEDGGRTSYADSVKGRFTISRDNSKNTLYLQMNSLRAEDTAVYYCARASAYIPYSEFYAGFDVWGQGTLVTVSS
VL: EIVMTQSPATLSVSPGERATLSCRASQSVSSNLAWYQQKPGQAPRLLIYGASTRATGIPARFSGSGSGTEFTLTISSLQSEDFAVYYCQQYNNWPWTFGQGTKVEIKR
notes: Fab
Take B6: the figures for the Kd in experiment [2] and in experiment [3] were 582 nM and 696 nM, respectively.

B7: anti-BCMA-PP02-C4 FAB (Fab, V domains shown)
VH: EVQLLESGGGLVQPGGSLRLSCAASGFTFTAYDMSWVRQAPGKGLEWVSAISGFGGDTLYADSVKGRFTISRDNSKNTLYLQMNSLRAEDTAVYYCARIGYYYLDSAFDYWGQGTLVTVSS
VL: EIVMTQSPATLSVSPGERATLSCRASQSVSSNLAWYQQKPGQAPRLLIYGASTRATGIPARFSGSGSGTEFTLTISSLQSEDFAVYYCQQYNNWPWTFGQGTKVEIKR
notes: Fab
As to B7, the figures for the dissociation constant (Kd) in experiment [2] and in experiment [3] were 608 nM and 114 nM, respectively.

B8: anti-BCMA-PP03-C4 FAB (Fab, V domains shown)
VH: EVQLLESGGGLVQPGGSLRLSCAASGFTFTAYDMSWVRQAPGKGLEWVSAISGFGGDTLYADSVKGRFTISRDNSKNTLYLQMNSLRAEDTAVYYCARIGYYYLDSAFDYWGQGTLVTVSS
VL: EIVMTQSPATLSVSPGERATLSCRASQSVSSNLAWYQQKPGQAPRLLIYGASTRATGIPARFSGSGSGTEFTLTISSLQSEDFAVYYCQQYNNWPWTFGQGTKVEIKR
notes: Fab
Take B8: the dissociation constant Kd turned out to be 549 nM in experiment [2] and 109 nM in experiment [3].

B9: anti-BCMA-PP02-B4 FAB (Fab, V domains shown)
VH: EVQLLESGGGLVQPGGSLRLSCAASGFTFSNYDMSWVRQAPGKGLEWVSAISVSGDFTQYADSVKGRFTISRDNSKNTLYLQMNSLRAEDTAVYYCARVGYYLLDSAFDIWGQGTLVTVSS
VL: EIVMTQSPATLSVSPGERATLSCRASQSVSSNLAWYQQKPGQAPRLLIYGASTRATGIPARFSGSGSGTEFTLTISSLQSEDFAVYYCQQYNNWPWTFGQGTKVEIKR
notes: Fab
With B9, the Kd in experiment [2] was 648 nM; in experiment [3], 58 nM.

B10: anti-BCMA-UCP01-E8 FAB (Fab, V domains shown)
VH: QVQLVQSGAEVKKPGSSVKVSCKASGGQFSVQFISWVRQAPGQGLEWMGGIIPTSGDTYYAQKFQGRVTITADESTSTAYMELSSLRSEDTAVYYCARSVVDLSYVTGYYYMDIWGQGTLVTVSS
VL: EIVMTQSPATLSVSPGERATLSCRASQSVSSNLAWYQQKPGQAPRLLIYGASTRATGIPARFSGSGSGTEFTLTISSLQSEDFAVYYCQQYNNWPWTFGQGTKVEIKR
notes: Fab
Consider B10, for which the binding result in experiment [1] is “no binding”. In experiment [2], the Kd turned out to be 1740 nM.

B11: anti-BCMA-UCP01-A8 FAB (Fab, V domains shown)
VH: QVQLVQSGAEVKKPGSSVKVSCKASGGLFNYYIINWVRQAPGQGLEWMGGIIPTYGGAGYAQKFQGRVTITADESTSTAYMELSSLRSEDTAVYYCARSSPSISGYAFDVWGQGTLVTVSS
VL: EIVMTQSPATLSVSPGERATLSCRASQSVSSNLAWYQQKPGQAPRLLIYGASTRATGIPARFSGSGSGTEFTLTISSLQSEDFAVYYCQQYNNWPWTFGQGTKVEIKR
notes: Fab
Turning to B11, the binding result in experiment [1] was “no binding”. For the same molecule, the equilibrium dissociation constant (Kd) in experiment [2] is 235 nM.
